Experimental data as given in patent US20240116985A1 (published 2024).
Like-named read-outs stand apart in the source and are kept apart here. Each block holds one binder with its values, some of them ahead of it. Starred links: 1 amine or outer side, 2 acyl side, 3 side chain; linkers in the order of their positions; H or OH if unused. Positions of bridges follow the written chain, without caps; N, C: chain ends. Non-standard residues stand in square brackets, D forms with d. Primed or numbered codes have the meaning given here. *: point of attachment. PyrS2″ = (S)-3-amino-1-((pent-4-en-1-yloxy)carbonyl)pyrrolidine-3-carboxylic acid (stapling residue), C=CCCCOC(=O)N1CC[C@@](N[*:1])(C(=O)[*:2])C1; B5(4) = 2,2-bis(4-pentenyl)glycine = 2-amino-2-(pent-4-en-1-yl)hept-6-enoic acid (stitching residue), C=CCCCC(CCCC=C)(N[*:1])C(=O)[*:2]; B5(5) = 2,2-bis(4-pentenyl)glycine, 2-amino-2-(pent-4-en-1-yl)hept-6-enoic acid (stitching residue), C=CCCCC(CCCC=C)(N[*:1])C(=O)[*:2]; TfeGA = (S)-2-amino-3-((carboxymethyl)(2,2,2-trifluoroethyl)amino)propanoic acid, O=C([C@H](CN(CC(=O)[*:3])CC(F)(F)F)N[*:1])[*:2]; PyrS2 = (S)-3-amino-1-((pent-4-en-1-yloxy)carbonyl)pyrrolidine-3-carboxylic acid, C=CCCCOC(=O)N1CC[C@@](N[*:1])(C(=O)[*:2])C1; 5iPr3COOHF = (S)-3-(2-amino-2-carboxyethyl)-5-isopropylbenzoic acid, CC(C)c1cc(C[C@H](N[*:1])C(=O)[*:2])cc(C(=O)[*:3])c1; B5(22) = 2-amino-2-(pent-4-en-1-yl)hept-6-enoic acid (two alkene side chains), C=CCCCC(CCCC=C)(N[*:1])C(=O)[*:2]; B5(3) = 2,2-bis(4-pentenyl)glycine (stitching residue), C=CCCCC(CCCC=C)(N[*:1])C(=O)[*:2]; Phe(2-CF3) = N[C@@H](Cc1ccccc1C(F)(F)F)C(=O)O; Phe(2-Cl) = N[C@@H](Cc1ccccc1Cl)C(=O)O; Bta = N[C@@H](Cc1csc2ccccc12)C(=O)O; Lys(iPr) = CC(C)NCCCC[C@H](N)C(=O)O; αAllylPro = C=CC[C@@]1(C(=O)O)CCCN1; tBuAla = CC(C)(C)C[C@H](N)C(=O)O; 3Thi = N[C@@H](Cc1ccsc1)C(=O)O; Cha = N[C@@H](CC1CCCCC1)C(=O)O; S8 = C=CCCCCCC[C@](C)(N)C(=O)O; Thr(ol) = C[C@@H](O)[C@H](N)CO; Leu(ol) = CC(C)C[C@H](N)CO; NH(CH2)6NH2 = NCCCCCCN*; Alaol = C[C@@H](CO)N*

What was measured:
[1] = molecular target: T1, B-cat-Halo (beta-catenin HaloTag NanoBRET construct expressed in HEK293 cells) (UniProt P35222 1-781, HaloTag NanoBRET 618 Ligand bound to the HaloTag); experiment: cell-based or functional assay
T1 sequence (looked up): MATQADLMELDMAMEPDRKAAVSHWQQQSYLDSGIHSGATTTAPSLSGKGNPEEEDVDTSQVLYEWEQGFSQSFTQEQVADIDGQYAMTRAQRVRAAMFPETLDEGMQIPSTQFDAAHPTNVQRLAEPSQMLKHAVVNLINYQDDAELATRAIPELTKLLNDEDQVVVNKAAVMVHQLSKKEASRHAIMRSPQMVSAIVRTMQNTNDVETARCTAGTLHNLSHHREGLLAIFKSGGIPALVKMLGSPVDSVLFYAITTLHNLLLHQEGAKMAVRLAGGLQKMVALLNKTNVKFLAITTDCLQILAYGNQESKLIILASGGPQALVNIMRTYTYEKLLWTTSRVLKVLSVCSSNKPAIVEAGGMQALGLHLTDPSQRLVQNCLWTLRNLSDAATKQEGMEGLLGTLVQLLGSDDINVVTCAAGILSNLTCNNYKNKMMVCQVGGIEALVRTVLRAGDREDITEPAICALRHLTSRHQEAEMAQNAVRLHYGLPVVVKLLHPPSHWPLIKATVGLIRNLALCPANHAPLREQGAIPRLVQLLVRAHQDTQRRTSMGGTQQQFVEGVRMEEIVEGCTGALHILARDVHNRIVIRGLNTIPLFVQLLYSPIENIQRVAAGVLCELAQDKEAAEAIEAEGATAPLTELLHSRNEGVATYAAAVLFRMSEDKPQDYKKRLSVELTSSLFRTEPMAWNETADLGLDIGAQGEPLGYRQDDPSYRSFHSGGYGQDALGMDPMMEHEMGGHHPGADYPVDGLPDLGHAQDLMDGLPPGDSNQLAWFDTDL

[2] = molecular target: T2, B-cat-Halo (beta-catenin HaloTag NanoBRET construct expressed in HEK293 cells) (UniProt P35222 1-781); experiment: cell-based or functional assay
T2 sequence (looked up): T1 sequence (looked up)

B-cat-Halo [3] = molecular target: T3, B-cat-Halo (UniProt P35222 1-781); experiment: cell-based or functional assay
T3 sequence (looked up): T1 sequence (looked up)

[4] = molecular target: T4, beta-catenin in DLD1 TCF/LEF reporter cells (UniProt P35222 1-781); experiment: cell-based or functional assay
T4 sequence (looked up): T1 sequence (looked up)

B-cat-Halo [5] = molecular target: T5, B-cat-Halo (UniProt P35222 1-781); experiment: cell-based or functional assay; remark: listed apart in the source
T5 sequence (looked up): T1 sequence (looked up)

[6] = molecular target: T6, B-cat-Halo (beta-catenin HaloTag fusion expressed in HEK293 cells) (UniProt P35222 1-781); experiment: cell-based or functional assay
T6 sequence (looked up): T1 sequence (looked up)

[7] = molecular target: T7, full-length beta-Catenin (Uniprot ID P35222) (Homo sapiens (Human), UniProt P35222 1-781); experiment: fluorescence polarization competition; full-length beta-catenin with 5FAM-labeled TCF4 residues 10-53 probe as competitor
T7 construct: also called bCat; B-Catenin
T7 sequence: T1 sequence (looked up)
Description: The plate was incubated protected from light for 60 minutes at 20° C. prior to read. Reads were performed on a CLARIOstar plate reader (BMG Labtech) in duplicate, and data were fitted to a 1:1 binding model with hill slope using an in-house script. All provided concentrations are final concentrations.

[8] = molecular target: T8, B-cat-Halo (beta-catenin HaloTag NanoBRET construct expressed in HEK293 cells) (UniProt P35222 1-781); experiment: cell-based or functional assay; remark: listed apart in the source
T8 sequence (looked up): T1 sequence (looked up)

- NanoBRET Abs IC50 [1]: 13.5 µM
Binder: Ac-[αAllylPro]D[tBuAla][B5(3)]D[TfeGA]AAFT[S8][Phe(2-Cl)][Bta]Q-NH2 (staple 1-4, 4-11) [I-930]

- NanoBRET Abs IC50 [2]: 10.3 µM
Binder: Ac-[αAllylPro]D[tBuAla][B5(4)]D[TfeGA]AAFT[PyrS2][Phe(2-Cl)][Bta]Q-{NH(CH2)6NH2} (staple 1-4, 4-11) [I-1061]

- NanoBRET Abs IC50 (B-cat-Halo [3]): > 20 µM
- DLD1 reporter assay Abs IC50 [4]: > 20 µM
Binder: Ac-[αAllylPro]D[tBuAla][B5(4)]DDAAFT[PyrS2″][Phe(2-Cl)][Bta][Leu(ol)] (staple 1-4, 4-11) [I-1247]

- NanoBRET Abs IC50 [2]: > 20 µM
B1: I-1053 (peptide)
peptide: XDXXDDAAFNXXXQ
modifications: not fully specified; AzAc-PL3-Asp-Npg-B5-Asp-Asp-Ala-Ala-Phe-Asn-S8-3Thi-BztA-Gln-NH2; stapled PL3-B5 and B5-S8 (olefin metathesis)

- NanoBRET Abs IC50 [1]: 33.1 µM
Binder: Ac-[αAllylPro]D[tBuAla][B5(22)]DDAAFN[PyrS2][3Thi][Bta]QK(PropynPEG1)-NH2 (staple 1-4, 4-11) [I-935]

- NanoBRET Abs IC50 (B-cat-Halo [3]): 24.3 µM
- DLD1 reporter assay Abs IC50 [4]: 15.9 µM
Binder: Ac-[αAllylPro]D[tBuAla][B5(4)]DDAAFT[PyrS2″][Phe(2-Cl)][Bta]-Alaol (staple 1-4, 4-11) [I-1246]

- NanoBRET Abs IC50 (B-cat-Halo [5]): 4.5 µM
Binder: Ac-[αAllylPro]D[tBuAla][B5(5)]D[5iPr3COOHF]AAFL[PyrS2″][Phe(2-CF3)][Bta]Q-NH2 (staple 1-4, 4-11) [I-2430]

- NanoBRET Abs IC50 [6]: 27.8 µM
Binder: Ac-[αAllylPro]D[tBuAla][B5(3)]NDAAFN[PyrS2″][3Thi][Bta]Q-NH2 (staple 1-4, 4-11) [Ac-PL3-Asp-Npg-B5-Asn-Asp-Ala-Ala-Phe-Asn-PyrS2-3Thi-BztA-Gln-NH2]

- NanoBRET Abs IC50 (B-cat-Halo [5]): 7 µM
Binder: Ac-[αAllylPro]D[tBuAla][B5(5)]D[5iPr3COOHF]QAFL[PyrS2″][Phe(2-CF3)][Bta]A-NH2 (staple 1-4, 4-11) [I-2431]

- NanoBRET Abs IC50 [6]: 7.5 µM
Binder: Ac-[αAllylPro]D[tBuAla][B5(3)]NDAAFL[PyrS2″][3Thi][Bta]Q-NH2 (staple 1-4, 4-11) [Ac-PL3-Asp-Npg-B5-Asn-Asp-Ala-Ala-Phe-Leu-PyrS2-3Thi-BztA-Gln-NH2]

- NanoBRET Abs IC50 (B-cat-Halo [5]): > 20 µM
Binder: Ac-[αAllylPro]D[Cha][B5(5)]DQ[Lys(iPr)]AFL[PyrS2″]F[Bta]K-NH2 (staple 1-4, 4-11) [I-2429]

- NanoBRET Abs IC50 (B-cat-Halo [3]): 12.2 µM
- DLD1 reporter assay Abs IC50 [4]: 7.3 µM
Binder: Ac-[αAllylPro]D[tBuAla][B5(4)]DDAAFT[PyrS2″][Phe(2-Cl)][Bta][Thr(ol)] (staple 1-4, 4-11) [I-1245]

- IC50 [7]: 0.032 µM
- NanoBRET Abs IC50 [8]: 17 µM
Binder: Ac-[αAllylPro]DL[B5(4)]DEAAFN[S8]F[Bta]H-NH2 (staple 1-4, 4-11) [I-543]

- NanoBRET Abs IC50 [2]: > 20 µM
Binder: AzAc-[αAllylPro]D[tBuAla][B5(4)]D[TfeGA]AAFN[PyrS2][3Thi][Bta]Q-NH2 (staple 1-4, 4-11; not fully specified) [I-1054]

- NanoBRET Abs IC50 [8]: 4.6 µM
Binder: Ac-[αAllylPro]D[tBuAla][B5(4)]DEAAFQ[S8]F[Bta]Q-NH2 (staple 1-4, 4-11) [I-544]
